Measurements as given in patent US20210187002A1 (OSAKA UNIVERSITY, published 2021).

B1: LILRB1-Fc fusion protein (Fc fusion)
chain: GHLPKPTLWAEPGSVITQGSPVTLRCQGGQETQEYRLYREKKTAPWITRIPQELVKKGQFPIPSITWEHTGRYRCYYGSDTAGRSESSDPLELVVTGAYIKPTLSAQPSPVVNSGGNVTLQCDSQVAFDGFILCKEGEDEHPQCLNSQPHARGSSRAIFSVGPVSPSRRWWYRCYAYDSNSPYEWSLPSDLLELLVLGVSKKPSLSVQPGPIVAPEETLTLQCGSDAGYNRFVLYKDGERDFLQLAGAQPQAGLSQANFTLGPVSRSYGGQYRCYGAHNLSSEWSAPSDPLDILIAGQFYDRVSLSVQPGPTVASGENVTLLCQSQGWMQTFLLTKEGAADDPWRLRSTYQSQKYQAEFPMGPVTSAHAGTYRCYGSQSSKPYLLTHPSDPLELVVSGPSGGPSSPTTGPTSTSAGPEDQPLTPTGSDPQSGLGRHLGV
notes: Made in 293T cells and purified with Protein A. For flow cytometry it was complexed with an APC-labeled anti IgG Fc antibody; not shown: Fc part
B2: recombinant RIFIN protein (variable region of PF3D7_1254800 with His tag) (ligand)
chain: YETINAFIAKTIEELEGIPGITKLFGAKISQFVTPAVFRKPMSLVETILSEKKKLCLCAANKNELLCRGMNPNVPETLPKKIEVAVNEVLSSVNDTWATATTPTTFFTNP
notes: Used in solution, on plates and on latex or Luminex beads; also called RIFIN-1; RIFIN beads

Columns and labels:
[1] = target: T1, fusion protein containing the conserved region of RIFIN (PF3D7_1254800) and the transmembrane and … (Plasmodium falciparum); assay: flow cytometry on transfected 293T cells
T1 construct: also called fusion protein containing a conserved region

[2] = target: leukocyte immunoglobulin-like receptor subfamily B member 1 (LILRB1) protein (human, UniProt Q8NHL6 24-650); assay: flow cytometry on LILRB1 protein-expressing 293T cells, APC-labeled anti-His antibody

Binder | binding result [1] | binding result [2]
B1 | no binding | 
B2 |  | binds
